Article doi:10.1101/2020.11.02.20223404

Biological target: angiotensin-converting enzyme 2 (ACE2) (human) (UniProt Q9BYF1)
Test: other fluorescence titration

Sequence of UniProt Q9BYF1 (Q9BYF1 18-805): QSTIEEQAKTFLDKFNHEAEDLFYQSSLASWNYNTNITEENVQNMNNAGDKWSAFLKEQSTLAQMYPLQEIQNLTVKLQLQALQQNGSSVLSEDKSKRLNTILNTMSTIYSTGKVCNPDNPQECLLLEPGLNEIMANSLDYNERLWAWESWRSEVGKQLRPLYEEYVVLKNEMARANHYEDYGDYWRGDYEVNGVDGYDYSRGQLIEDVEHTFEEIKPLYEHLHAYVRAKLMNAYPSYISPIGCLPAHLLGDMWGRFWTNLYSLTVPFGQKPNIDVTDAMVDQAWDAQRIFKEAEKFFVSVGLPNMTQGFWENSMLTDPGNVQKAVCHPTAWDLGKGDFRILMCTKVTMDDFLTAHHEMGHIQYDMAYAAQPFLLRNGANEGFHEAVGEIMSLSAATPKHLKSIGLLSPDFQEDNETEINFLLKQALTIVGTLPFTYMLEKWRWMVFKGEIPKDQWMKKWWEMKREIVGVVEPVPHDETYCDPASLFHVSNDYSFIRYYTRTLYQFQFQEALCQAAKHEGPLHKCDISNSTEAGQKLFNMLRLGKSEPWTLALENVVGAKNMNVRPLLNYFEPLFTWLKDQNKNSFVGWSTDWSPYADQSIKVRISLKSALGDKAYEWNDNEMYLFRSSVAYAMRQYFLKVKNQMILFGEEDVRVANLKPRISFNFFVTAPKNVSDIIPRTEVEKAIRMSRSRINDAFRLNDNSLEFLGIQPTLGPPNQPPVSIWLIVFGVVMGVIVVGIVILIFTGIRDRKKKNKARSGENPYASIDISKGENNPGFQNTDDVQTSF

## SARS-CoV-1 spike receptor-binding domain (S RBD) (domain or fragment)
  ΔF/F0 of the 1130 nm SWCNT emission peak after 90 min, 10 mg/L: 88.4%
